Literature values in article PMC5477003.

Target: integrin αIIbβ3 (Homo sapiens) (UniProt P08514)

Kd: 0.03 µM
Substance: CD40L (from UniProt P29965)
